Experimental data reported in patent US20260258115A1 (MAPP BIOPHARMACEUTICAL, published 2026).
Substitutions are numbered along the chain they refer to.

B1: ADI-41549 (antibody, V domains shown)
VH: EVQLLESGGGVVQPGGSLRLSCAASGFTFSGYGMHWVRQAPGKGLEWVAFIQYNGSNKYYADSVKGRFTISRDNSKNTLYVQLNSLRAEDTAVYYCATDILVVPAATPLISYYFGMDVWGQGTTVTVSS
VL: QSALTQPASVSGSPGQSITISCTGTSSDVGGYNYVSWYQQYPGKAPKLMIYEVTNRPSGVSNRFSGSKSGNTASLTISGLQAEDEADYYCCSYTSTNTRVFGTGTKVTVL
notes: also called Ab 821; Antibody Number 821
B2: ADI-41535 (antibody, V domains shown)
VH: QVTLKESGPALVKPTQTLTLTCTFSGFSLSTSRMCVSWIRQSPGKALEWLARIDWDDDKFFSTSLKTRLTISKDTSRNQVVLTMTNMDPVDTATYYCARTTVYASGGYYLYYFDYWGQGTLVTVSS
VL: DIQLTQSPSSLPASVGDRVTITCRASQRIASYLNWYQQKPGKAPKVLIYAASNLQSGVPSRFSGSGSGTDFTLTINSLQPEDFATYYCQQSYTTPWTFGQGTKVEIK
B3: ADI-41528 (antibody, V domains shown)
VH: EVQLVESGGGVVQPGRSLRLSCAASGFTFSSYAMHWVRQAPGKGLEWVAVISFDGSSDYYADSVKGRFTISRDSSKNTLYLRMNSLRAEDTAVYYCARRAVEYSIYNNDAFDVWGQGTTVTVSS
VL: SYELTQPPSVSVSPGQTASITCSGDKLGNKFTFWYQQKSGQSPVLVIYQETKRPSGIPERFSGSNSGNTATLTISGTQSMDEADYYCQAWDSSTAFFGGGTKLTVL
notes: also called Ab 800; Antibody Number 800
B4: ADI-41534 (antibody, V domains shown)
VH: QVQLVQSGGGVVQPGRSLRLSCAASGFTFSNYAMHWVRQAPGKGLEWVTLISYDGSAQDYADSVKGRITISRDNSKNTLYLQMSSLRPEDTAVYYCARYYCTNDVCSSSALDIWGQGTTVTVSS
VL: B3 VL with T5I, F33C, S39P, E50D, T51S, S79A, A95V, F96V, G100R
notes: also called Ab 806; Antibody Number 806
B5: ADI-41533 (antibody, V domains shown)
VH: QVQLVESGGGVVQPGRSLRLSCAASGFTFSSYAMHWVRQAPGKGLEWLAVISFDGSSEFYGDSVRGRFTISRDNSKNTLYLRVNSLRAEDTALYYCARRSLKYSMYNNDAFDVWGQGTTVTVSS
VL: B3 VL with S1Q, Y2P, E3V, T51S, K52Q, S75R, T77A, S79A
B6: ADI-41548 (antibody, V domains shown)
VH: QVQLQQWGPGLVKPSETLSLTCTVSGASITSHYWSWLRQPAGKGLEWIGRFYPSGTTEKTPSLKSRVTLSVDTSKNHFSLKLTSVTAADTAVYYCARDSYDDIAGSYEYYFADWGQGTLVTVSS
VL: EIVLTQSPATLSVSPGERATLSCRASQSVSSNLAWYQQKPGQAPRLLIYDISTRATGVPARFSGSGSGTEFTLTITSLQSEDFTVYYCQQYNNWPPTFGQGTKLEIK
notes: also called Ab 820; Antibody Number 820
B7: ADI-41545 (antibody, V domains shown)
VH: QVQLVESGPGLVKPSETLSLTCTVSGGSISRYYWSWIRQSPGKGLEWIGYIYHSVITNYNPSLKSRVTISIDMSKNQFSLKLSSVTAADTAVYYCASRPLINGYGPDNYFDYWGQGTLVTVSS
VL: SYVLTQPPSVSVAPGQTARITCGGNNIGSKSVHWYQRKPGQAPVLVVYDDSDRPSGIPERFSGSNSGNTATLTIIRVEAGDEADYYCQVWDNSSDHPVFGGGTKLTVL
notes: also called Ab 817; Antibody Number 817
B8: ADI-41532 (antibody, V domains shown)
VH: QVQLVQSGAEVKKPGESLKISCKGSGYSFTSSWIGWVRQMPGKGLEWMGIIYPGDSDTRYSPSIQGRVTISADKSITTAYLQWSSLKASDTATYYCAKFGGYADAYFYHGMDVWGQGTTVTVSS
VL: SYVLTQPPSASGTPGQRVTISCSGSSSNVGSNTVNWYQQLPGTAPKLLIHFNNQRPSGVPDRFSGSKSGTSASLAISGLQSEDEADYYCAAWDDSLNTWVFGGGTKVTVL
B9: ADI-41531 (antibody, V domains shown)
VH: EVQLLESGGDLVQPGGSLRLSCAASGFTFFSYALNWVRRTPGKGLEWVSGISGSGGSTYYADSVKGRFTISRDNSKSTLYLQMNSLKVDDTAVYFCAKDFQHDYGDPYRSYYFDHWGQGTLVTVSS
VL: DIQLTQSPSSLAASVGDRVTITCQASRDIRKSLNWYQVKPGKAPKLLISDASYLETGVPPRFSGSGFGTHFTFTISSLQPEDIATYYCQQYDNLPPPTFGGGTKVDIK
notes: also called Ab 803; Antibody Number 803
B10: ADI-41530 (antibody, V domains shown)
VH: QVQLVESGAEVKKPGASVKVSCRASGYTFSAYDINWVRQAPGQGLEWVGWMNPNSGNTGYALRFQGRVTMTRDTSINTAYMELSSLRSDDTAVYYCAAQLWYPNWGQGTLVTVSS
VL: SYELTQPPSVSVGLGQTASITCGGNNIGSKSVHWYQQKPGQAPTLVIYRDTNRPSGIPERFSGSNSENTATLTISRAQAGDEADFYCQVSDNYSWVFGGGTKLTVL
notes: also called Ab 802; Antibody Number 802
B11: ADI-41541 (antibody, V domains shown)
VH: QITLKESGPTLVKPTQTLTLTCTFSGFSLSSSGVGVGWIRQPPGKALEWLALIYWDDDKRYSPSLKSRLTITKDTSKNQVVLTMTNMDPVDTATYYCAHRGPYYYDMSGYYYEAFDIWGQGTTVTVSS
VL: SYELMQPPSVSVAPGQTARITCGGNNIGSKGVHWYQQKPGQAPVLVVYDDNDRPSGIPERFSGSNSGNTATLTISRVEAGDEADYYCQVWDSSSDHHYVFGTGTKVTVL
notes: also called Ab 813; Antibody Number 813
B12: ADI-41538 (antibody, V domains shown)
VH: EVQLVESGGGLVKPGGSLRLSCAASGFTLSTYGVNWVRQAPGKGLEWVSSISSSGNNIHYADSVKGRFTVFRDNAKHSMYLQMNSLRAEDTAVYYCARSLDYSNYYYYYGLDVWGQGTTVTVSS
VL: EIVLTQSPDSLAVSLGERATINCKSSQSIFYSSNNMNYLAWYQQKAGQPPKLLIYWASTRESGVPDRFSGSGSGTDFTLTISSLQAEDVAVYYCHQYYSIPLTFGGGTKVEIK
notes: also called Ab 810; Antibody Number 810
B13: ADI-41539 (antibody, V domains shown)
VH: QVQLVESGAEVKKPGASVKVSCKASGYNFIDYGISWVRQAPGQGLEWVGWISAYNGNTNYAQKLQGRVTMTTDTSTNTAYMELRSLRSDDTALYYCARDSSSLHPTYYYYYPMDVWGQGTTVTVSS
VL: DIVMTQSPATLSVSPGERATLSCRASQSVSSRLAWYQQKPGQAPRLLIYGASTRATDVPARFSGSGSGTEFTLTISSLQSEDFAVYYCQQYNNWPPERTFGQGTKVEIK
B14: ADI-41540 (antibody, V domains shown)
VH: QVQLQQWGAGLLKPSETLSLTCGVYGGSFTGYQWSWIRQSPGKGLEWIGDIDHGGNTNYRPSLKSRIITSVNMSKKEFSLKLASVTAADTAVYYCARGVGFLEFSGGPTGRRRNWFDSWGQGTLVTVSS
VL: DIQLTQSPGTLSLSPGEGATLSCRASQSVGGSYLAWYQQRPGQAPRLLIYGASNRAADSPDRFSGSGSATDFTLTISRLEPEDFAVYYCQQYGSSPWTFGQGTKVEIK
B15: ADI-41537 (antibody, V domains shown)
VH: EVQLLESGGGLVQPGGSLRLSCAASEFTFSRYPMSWVRQAPGKGLEWVSGISVSGDSTYYADSVKGRLTISRDNSKNTLYLQMNSLRAEDTAVYYCAIDHYDTSGYYGMDVWGQGTTVTVSS
VL: DIRLTQSPLSLPVTPGEPASISCRSSRSLLRSNGYNYLDWYLQKPGQSPQLLIYLGSNRASGVPDRFSGSGSGTDFTLKISRVEAEDVGVYYCMQALQSSYTFGQGTKLEIK
B16: ADI-41529 (antibody, V domains shown)
VH: EVQLVQSGAEVRRPGSSVKVSCKASGGTLDTDSISWVRQVPGQGLVWVGGVIPILGSVVYARKFQGRVTITADGSTSTAYMELRSLRSEDTAMYYCASQFYDFRRGYFDAFDIWGQGTTVTVSS
VL: ETTLTQSPGILSLSPGERATLSCRATQTVISNYINWYQQKPGQAPRLLIYGASSRATGIPDRFSGSGSGTDFTLTISRLEPEDFAVYYCQRYDSSPPGFTFGPGTKVDIK
B17: ADI-41536 (antibody, V domains shown)
VH: EVQLVESGAGLLKPSETLSLTCVVYGGSFSGYYWSWIRQPPGKGLEWVGDINHSTTTNYNPSLESRITISIDTSKNQFSLNLSSVTAADSAVYYCARGPKECTSSSCDRFGVDYFYYGMDVWGRGTTVTVSS
VL: QSVLTQPPSVSGAPGQRVTISCTGSSANIGAGYDVHWYQQFPGTAPKLLIFGNSNRPSGVPDRFSGSKSGTSASLAITGLQAEDEADYYCQSYDGTLGGWVFGGGTQLTVL
notes: also called Ab 808; Antibody Number 808
B18: ADI-41543 (antibody, V domains shown)
VH: QVQLVQSGAEVKKPGASVRVSCKASGYTLTGYYIHWLRQAPGQGLEWVGRINPNTGETSYSQKFQGRVIMTRDTSVSTAYVDLSRLRSRDTAVYFCARSDVMITVTAEGDFSYYYYRFDVWGQGTTVTVSS
VL: DIVMTQTPLSLPVTPGEPASISCRSSQSLLHSNGHNYLDWYLQKPGQSPQLLIYLGSIRASGVSDRFSGSGSGTDFTLKISRVEAEDVGIYYCMQALQTPHFGGGTKVEIK
B19: ADI-41547 (antibody, V domains shown)
VH: QVQLVQSGAEVKKPGSSVKVSCKASGGSFSSNTINWVRQAPGQGLEWMGGIIPVFETPNYAQKFQGRVSFTADESTRTAYMELSSLRSEDTAVYFCARQGMSYYDTNGNYYVGWFDTWGQGTLVTVSS
VL: EIVLTQSPGTLSLSPGERATLSCRASQSLNNNYLAWYQRKPGQAPRLLIYGAGAFSRATGIPDRFSGSGSGTDFTLTISRLEPEDFALYYCQQYGSSPLTFGQGTRLEIK
notes: also called Ab 819; Antibody Number 819

The binders below were run against RSV F on RSV-A2 virus (Respiratory Syncytial Virus (RSV-A2), UniProt P03420 26-574) (assay: cell-based or functional assay).

| Binder | Neutralization IC50 (RSV subtype A) |
| --- | --- |
| B1 | > 25 µg/mL |
| B2 | > 25 µg/mL |
| B3 | > 25 µg/mL |
| B4 | > 25 µg/mL |
| B5 | > 25 µg/mL |
| B6 | > 25 µg/mL |
| B7 | > 25 µg/mL |
| B8 | > 25 µg/mL |
| B9 | > 25 µg/mL |
| B10 | > 25 µg/mL |
| B11 | > 25 µg/mL |
| B12 | > 25 µg/mL |
| B13 | 0.18 µg/mL |
| B14 | > 25 µg/mL |
| B15 | > 25 µg/mL |
| B16 | > 25 µg/mL |
| B17 | > 25 µg/mL |
| B18 | > 25 µg/mL |
| B19 | 0.05 µg/mL |

The binders below were run against RSV prefusion F (preF), DS-Cav1 (Respiratory Syncytial Virus, UniProt P03420 26-513) (assay: BLI, IgG on anti-human IgG sensor, 100 nM antigen, 1:1 fit).

| Binder | Kd |
| --- | --- |
| B1 | 0.408 nM |
| B2 | 1.93 nM |
| B3 | 2.28 nM |
| B4 | 3.31 nM |
| B5 | 1.47 nM |
| B6 | 2.56 nM |
| B7 | 1.36 nM |
| B8 | 1.92 nM |
| B9 | 2.08 nM |
| B10 | 1.91 nM |
| B11 | 2.47 nM |
| B12 | 3.44 nM |
| B13 | 3.38 nM |
| B14 | 3.54 nM |
| B15 | 2.58 nM |
| B16 | 1.03 nM |
| B17 | 3.05 nM |
| B18 | 2.9 nM |
| B19 | 3.19 nM |

The binders below were run against RSV postfusion F (postF), F ΔFP (Respiratory Syncytial Virus, UniProt P03420 26-513) in the same assay as above.

| Binder | Kd |
| --- | --- |
| B1 | 1.56 nM |
| B2 | 0.476 nM |
| B3 | 0.348 nM |
| B4 | 0.472 nM |
| B5 | 0.423 nM |
| B6 | 1.45 nM |
| B7 | 0.825 nM |
| B8 | 0.392 nM |
| B9 | 0.377 nM |
| B10 | 0.355 nM |
| B11 | 0.776 nM |
| B12 | 0.587 nM |
| B13 | 0.615 nM |
| B14 | 0.686 nM |
| B15 | 0.488 nM |
| B16 | 0.351 nM |
| B17 | 0.476 nM |
| B18 | 0.796 nM |
| B19 | 1.08 nM |
